Source: patent US20220112291A1 (Pfizer, published 2022)
Numbering of substitutions follows the chain as printed. Numbers in names are those of the source.

B1: Ab138 (antibody, human IgG1, kappa, V domains shown)
VH: EVQLVESGGGLVQPGGSLRLSCAASGFTFTDFYMNWVRQAPGKGLEWVAFIRNKANGYTTESNPSVKGRFTISRDNAKNSLYLQMNSLRAEDTAVYYCARETTGIPTGWFAYWGQGTLVTVSS
VL: DIQMTQSPSSLSASVGDRVTITCLASEDISNDLAWYQQKPGKAPKLLIYGANRLKDGVPSRFSGSGSGTDYTLTISSLQPEDFATYYCQQSYKYPYTFGQGTKLEIKR
notes: Humanized variant of chimeric Ab40; human IgG1 (L234A/L235A/G237A, effector function null) / human kappa; heavy chain can be prepared with or without the terminal lysine; Tb-labeled in the HTRF assay; also called humanized anti-CD1a antibody Ab138; parental Ab138
B2: Ab624 (antibody, human IgG1, kappa, V domains shown)
VH: B1 VH with T28D, F32H, N35H, F50H, I51T, N53D, N56G, S65A, G104R
VL: B1 VL with S30Y, N31F, A51G, N52D, D56E, K93S
notes: Optimized variant of Ab138; human IgG1 effector null / kappa; HC with or without terminal lysine
B3: Ab572 (antibody, human IgG1, kappa, V domains shown)
VH: B1 VH with F32H, N35T, N56G, S65A
VL: B1 VL with S30Y, N31F, A51G, N52D, D56E, Y92E, K93S
notes: as for B2
B4: Ab623 (antibody, human IgG1, kappa, V domains shown)
VH: B1 VH with T30E, F32H, N35H, F50H, I51T, N53D, N56G, S65A, G104R
VL: B1 VL with S30Y, N31F, A51G, N52D, D56E, K93S
notes: as for B2
B5: Ab560 (antibody, human IgG1, kappa, V domains shown)
VH: B1 VH with F32H, N35H, N56G, S65A, G104T
VL: B1 VL with S30Y, N31F, A51G, N52D, D56E, Y92E, K93S
notes: as for B2
B6: Ab689 (antibody, human IgG1, kappa, V domains shown)
VH: B1 VH with F32H, N35H, F50H, I51T, N53D, N56G, S65A, G104R
VL: B1 VL with S30Y, N31F, A51G, N52D, K55Q, D56E, K93S
notes: as for B2
B7: Ab599 (antibody, human IgG1, kappa, V domains shown)
VH: B1 VH with F32H, N35H, A49G, F50H, R52S, N53G, K54S, N56G, S65A, G104R
VL: B1 VL with S30Y, N31F, A51G, N52D, D56E, Y92E, K93S
notes: as for B2
B8: Ab609 (antibody, human IgG1, kappa, V domains shown)
VH: B1 VH with T30E, F32H, N35H, F50H, I51T, N53D, N56G, S65A, G104R
VL: B1 VL with S30Y, N31F, A51G, N52D, D56E, Y92E, K93S
notes: as for B2
B9: Ab579 (antibody, human IgG1, kappa, V domains shown)
VH: B1 VH with F32H, N35T, K54S, N56G, S65A, G104R
VL: B1 VL with S30Y, N31F, A51G, N52D, D56E, K93S
notes: as for B2
B10: Ab585 (antibody, human IgG1, kappa, V domains shown)
VH: B1 VH with F32H, N35H, A49G, F50H, R52S, N53G, K54S, N56G, S65A, G104R
VL: B1 VL with S30Y, N31F, N52S, R53T, L54P, Y92E
notes: as for B2
B11: Ab610 (antibody, human IgG1, kappa, V domains shown)
VH: B1 VH with T28D, F32H, N35H, F50H, I51T, N53D, N56G, S65A, G104R
VL: B1 VL with S30Y, N31F, A51G, N52D, D56E, Y92E, K93S
notes: as for B2
B12: Ab660 (antibody, human IgG1, kappa, V domains shown)
VH: B1 VH with F32H, N35H, A49G, F50H, K54A, N56G, S65A, G104R
VL: B1 VL with S30Y, N31F, N52S, R53T, L54P, Y92E
notes: as for B2
B13: Ab616 (antibody, human IgG1, kappa, V domains shown)
VH: EVQLVESGGGLVQPGGSLRLSCAASGFTFEDHYMHWVRQAPGKGLEWVGHISGSAGGYTTESNPAVKGRFTISRDNAKNSLYLQMNSLRAEDTAVYYCARETTRIPTGWFAYWGQGTLVTVSS
VL: B1 VL with S30Y, N31F, A51G, N52D, D56E, K93S
notes: as for B2
B14: Ab673 (antibody, human IgG1, kappa, V domains shown)
VH: B13 VH with E30T, G49A, I51T, S52R, G53D, S54K
VL: B1 VL with S30Y, N31F, A51G, N52D, D56E, K93S
notes: as for B2
B15: Ab656 (antibody, human IgG1, kappa, V domains shown)
VH: B13 VH with T28D, E30T, G49A, I51T, S52R, G53D, S54K
VL: B1 VL with S30Y, N31F, A51G, N52D, K55Q, D56E, K93S
notes: as for B2
B16: Ab657 (antibody, human IgG1, kappa, V domains shown)
VH: B13 VH with E30T, G49A, I51T, S52R, G53D, S54K
VL: B1 VL with S30Y, N31F, N52S, R53T, L54P, Y92E
notes: as for B2
B17: Ab681 (antibody, human IgG1, kappa, V domains shown)
VH: B13 VH with E30T, G49A, I51T, S52R, G53D, S54K
VL: B1 VL with S30Y, N31F, A51G, N52D, K55Q, D56E, Y92E, K93S
notes: as for B2

biological target: T1, human single-chain CD1a-β2M recombinant protein (Human B2M-CD1a ECD-Avi-His6) (human); test: competition ELISA on plate-coated CD1a protein; competitor: biotinylated parental chimeric Ab40 at a fixed concentration; streptavidin-HRP, OD450
T1 construct: Biotinylated in the HTRF, phage selection and Gyrolab assays; also called human CD1a; CD1a protein
T1 sequence (chain, as listed by the source limits assumed): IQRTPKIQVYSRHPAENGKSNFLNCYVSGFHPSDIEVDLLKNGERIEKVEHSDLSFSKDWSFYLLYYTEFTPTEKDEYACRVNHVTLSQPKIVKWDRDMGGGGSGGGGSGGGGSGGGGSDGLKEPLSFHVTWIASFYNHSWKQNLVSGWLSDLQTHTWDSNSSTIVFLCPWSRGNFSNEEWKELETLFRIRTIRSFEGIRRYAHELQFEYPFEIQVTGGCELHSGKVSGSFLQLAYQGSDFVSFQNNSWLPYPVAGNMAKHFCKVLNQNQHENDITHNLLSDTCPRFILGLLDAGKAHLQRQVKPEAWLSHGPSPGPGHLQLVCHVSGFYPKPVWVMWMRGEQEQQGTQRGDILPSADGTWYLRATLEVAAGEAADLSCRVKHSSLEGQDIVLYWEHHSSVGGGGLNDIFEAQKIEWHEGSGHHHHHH
Description: For competition ELISA, high-binding Costar ELISA plates were coated with 0.1 μg per well (100 μL of 1 μg/mL) CD1a protein in PBS buffer overnight at 4° C. Plates were then washed and blocked for 3 hours with PBS+3% bovine serum albumin (BSA) at room temperature. […] After 2 hours incubation, plates were washed and incubated for 1 hour with streptavidin-HRP secondary reagent. After washing, plates were incubated with one-component HRP substrate and the developed color measured at 450 nm using Envision plate reader (Perkin Elmer).

| Binder | IC50 |
| --- | --- |
| B1 | 1940 pM |

biological target: human CD1a expressed on cells (human, UniProt P06126 17-327); test: cell-based or functional assay
Sequence (P06126 17-327): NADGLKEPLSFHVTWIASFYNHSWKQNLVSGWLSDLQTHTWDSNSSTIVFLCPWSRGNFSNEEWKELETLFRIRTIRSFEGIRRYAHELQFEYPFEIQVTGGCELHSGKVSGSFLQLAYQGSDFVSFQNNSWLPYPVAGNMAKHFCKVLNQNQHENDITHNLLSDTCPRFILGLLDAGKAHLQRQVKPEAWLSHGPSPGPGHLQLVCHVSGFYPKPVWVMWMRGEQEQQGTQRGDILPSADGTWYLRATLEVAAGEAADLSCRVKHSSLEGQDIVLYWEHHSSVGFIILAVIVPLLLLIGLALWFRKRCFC

| Binder | Inhibition of CD69 expression, IC50 | Inhibition of IL-2 production, IC50 |
| --- | --- | --- |
| B1 | 1970 pM |  |
| B2 | 350 pM | 170 pM |
| B3 | 850 pM |  |
| B4 | 350 pM | 170 pM |
| B5 | 1610 pM |  |
| B6 | 410 pM | 170 pM |
| B7 | 300 pM | 80 pM |
| B8 | 390 pM | 120 pM |
| B9 | 730 pM |  |
| B10 | 380 pM | 140 pM |
| B11 | 440 pM | 90 pM |
| B12 | 330 pM | 150 pM |
| B13 | 410 pM | 110 pM |
| B14 | 300 pM | 180 pM |
| B15 | 480 pM | 220 pM |
| B16 | 510 pM | 190 pM |
| B17 | 420 pM | 120 pM |

biological target: T1, human single-chain CD1a-β2M recombinant …; test: SPR (Biacore), IgG; antigen taken as human CD1a

| Binder | Kd |
| --- | --- |
| B1 | 3870 pM |
| B2 | 1300 pM |
| B3 | 390 pM |
| B4 | 560 pM |
| B5 | 350 pM |
| B6 | 3590 pM |
| B7 | 520 pM |
| B8 | 560 pM |
| B9 | 270 pM |
| B10 | 320 pM |
| B11 | 210 pM |
| B12 | 570 pM |
| B13 | 460 pM |
| B14 | 210 pM |
| B15 | 540 pM |
| B16 | 410 pM |
| B17 | 1220 pM |
